Experiment [1] concerns the target T1, cynomolgus TNFR2-His tagged protein (cynomolgus, UniProt A0A2K5VET2 132-366).
T1 construct: also called Cyno TNFR2; cynomolgus TNFR2 protein; not shown: His tag
T1 sequence: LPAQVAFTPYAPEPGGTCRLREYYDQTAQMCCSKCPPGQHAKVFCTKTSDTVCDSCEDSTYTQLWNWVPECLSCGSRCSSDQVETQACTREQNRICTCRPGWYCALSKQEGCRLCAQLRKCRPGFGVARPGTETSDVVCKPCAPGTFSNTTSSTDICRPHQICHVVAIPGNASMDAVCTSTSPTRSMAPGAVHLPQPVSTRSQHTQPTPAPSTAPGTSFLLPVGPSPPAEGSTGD
Kind of experiment: ELISA, cynomolgus TNFR2. In general terms: ELISA stands for enzyme-linked immunosorbent assay.

In experiment [2] the target is T2, human TNFR2-His tagged protein (soluble) (human, UniProt P20333 23-257).
T2 construct: also called hTNFR2 (soluble); soluble TNFR2-His; not shown: His tag
T2 sequence (looked up): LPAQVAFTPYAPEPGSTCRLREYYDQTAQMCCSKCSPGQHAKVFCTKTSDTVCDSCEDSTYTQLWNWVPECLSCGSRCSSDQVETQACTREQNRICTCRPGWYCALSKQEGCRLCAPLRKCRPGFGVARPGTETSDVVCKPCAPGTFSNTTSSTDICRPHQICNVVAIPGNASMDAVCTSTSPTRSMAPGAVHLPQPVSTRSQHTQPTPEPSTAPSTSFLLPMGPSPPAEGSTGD
Kind of experiment: ELISA, soluble human TNFR2.

The target in experiment [3] is T3, human TNFR2 expressed on cells (human, UniProt P20333 23-461).
T3 construct: whole, on cells; also called hTNFR2 (cell); CHO-TNFR2
T3 sequence (looked up): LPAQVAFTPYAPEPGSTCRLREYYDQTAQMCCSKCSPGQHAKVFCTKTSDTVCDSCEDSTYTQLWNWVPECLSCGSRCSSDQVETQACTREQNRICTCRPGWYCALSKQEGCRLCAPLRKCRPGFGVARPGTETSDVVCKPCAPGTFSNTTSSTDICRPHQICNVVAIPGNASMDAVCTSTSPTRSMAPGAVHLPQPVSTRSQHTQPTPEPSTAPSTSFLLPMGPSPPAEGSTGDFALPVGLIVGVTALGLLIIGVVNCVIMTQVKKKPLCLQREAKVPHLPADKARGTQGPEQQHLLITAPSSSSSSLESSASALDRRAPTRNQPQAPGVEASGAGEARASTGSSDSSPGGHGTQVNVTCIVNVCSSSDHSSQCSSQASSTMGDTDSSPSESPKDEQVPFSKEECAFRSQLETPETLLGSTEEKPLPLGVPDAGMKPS
Kind of experiment: flow cytometry, cell-expressed human TNFR2. For orientation: Flow cytometry measures light scatter and fluorescence of single cells or particles in a stream.

Experiment [4] concerns the target T3, human TNFR2 expressed on cells. Kind of experiment: cell binding on TNFR2-overexpressing (OE) cells.
Experiment [5] has as its target T2, human TNFR2-His tagged protein (soluble). Kind of experiment: ELISA on coated human TNFR2-His. How it is done: (§1) In FIGS. 3A-3B, human (3A) or cynomolgus (3B) TNFR2-His tagged protein was coated on 96-well ELISA plates at 1 μg/mL and incubated overnight at 4° C. Plates were washed and blocked using 1% BSA. Antibodies were added for 1 hour at room temperature (RT), washed, and detected using anti-Human HRP. Assay was developed using TMB substrate for 3-5 minutes. In FIG. 3C, FACS binding was performed on CHO cells that were engineered to express human TNFR2. Briefly, antibodies were incubated with 200,000 cells in MACS buffer for 1 hour followed by wash and detection using anti-human IgG BV421 for 20 minutes. Samples were analyzed using Cytoflex or MACSQuant flow cytometers. In FIG. 3D, ligand blocking ELISA was performed by coating plates with 1 ug/mL TNFR-Fc overnight at 4° C. Plates were washed, blocked and antibodies were incubated for 1 hr at RT. […] Assay was developed using TMB substrate for 5-7 minutes.

The target of experiment [6] is T1, cynomolgus TNFR2-His tagged protein. Kind of experiment: ELISA on coated cynomolgus TNFR2-His. How it is done: as §1
Experiment [7] has as its target T4, TNFR2 CRD4 peptide (peptide 5; aa 146-174 of mature TNFR2) (human).
T4 construct: Range counted on mature TNFR2; also called peptide five; bin 5
T4 peptide: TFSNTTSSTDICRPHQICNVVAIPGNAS
The experiment is described as follows: peptide-binding ELISA (potential peptide bin).

The next experiment has as its target T5, soluble mouse TNFR2 (mouse, UniProt P25119 23-258, limits assumed).
T5 sequence (looked up): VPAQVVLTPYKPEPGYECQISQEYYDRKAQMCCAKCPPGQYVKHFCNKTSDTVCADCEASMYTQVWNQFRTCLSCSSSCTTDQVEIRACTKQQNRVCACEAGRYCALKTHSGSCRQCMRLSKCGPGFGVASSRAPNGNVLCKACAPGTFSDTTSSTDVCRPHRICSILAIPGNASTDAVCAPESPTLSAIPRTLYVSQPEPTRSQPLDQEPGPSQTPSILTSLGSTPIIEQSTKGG
The experiment is described as follows: binding screen on soluble mouse TNFR2 (mouse cross-reactivity).

Experiment [8] deals with T3, human TNFR2 expressed on cells. The experiment is described as follows: flow cytometry on CHO cells expressing human TNFR2. How it is done:
as §1

In a further experiment the target is T6, TNFR-Fc (UniProt P20333 23-257, limits assumed).
T6 construct: Printed only as TNFR-Fc; not shown: Fc part
T6 sequence (looked up): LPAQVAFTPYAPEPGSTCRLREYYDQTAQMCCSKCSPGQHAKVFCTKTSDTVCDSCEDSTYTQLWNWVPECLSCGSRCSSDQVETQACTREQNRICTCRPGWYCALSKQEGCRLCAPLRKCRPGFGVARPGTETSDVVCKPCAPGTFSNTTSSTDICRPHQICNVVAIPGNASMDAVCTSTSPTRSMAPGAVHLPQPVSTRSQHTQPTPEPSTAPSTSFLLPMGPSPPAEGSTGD
The experiment is described as follows: TNF-α blocking ELISA (soluble).

B1: humanized antibody clone 25-10 (h600_24_10) (antibody, V domains shown)
VH: EVQLLESGGGLVQPGGSLRLSCAASGIDLSRYAMAWVRQAPGKGLEWVGYIDTGDSTYYATWAKGRFTISRDNSKNTLYLQMNSLRAEDTAVYYCTNVGVRMYLWGQGTLVTVSS
VL: DIQMTQSPSSLSASVGDRVTITCQASQSISSYLSWYQQKPGKAPKLLIYRASTLESGVPSRFSGSGSGTDFTLTISSLQPEDFATYYCQCGYYGGSYIGAFGGGTKVEIK
notes: its CDRs are those of rab600_25_10
A word on the EC50: it is the concentration that produces a half-maximal response. As usually defined, the Kd is the constant that tells how readily two partners part at equilibrium. High values mean lower affinity, low ones higher affinity. In the case of B1, the figures for the EC50 in experiment [1], in experiment [2] and in [3] were 113 pM, 53 pM and 1380 pM, respectively. The same molecule yielded a Kd in experiment [4] of 1050 pM.

B2: humanized antibody clone 25-103 (h600_24_103) (antibody, V domains shown)
VH: EVQLVESGGGLVQPGGSLRLSCAASGIDLSSYAMGWVRQAPGKGLEWVGFIDTGGSTYYANWAKGRFTISRDNSKNTLYLQMNSLRAEDTAVYYCANVGARMYLWGQGTLVTVSS
VL: DIQMTQSPSSLSASVGDRVTITCQASQSISNLLAWYQQKPGKAPKLLIYRASTLESGVPSRFSGSGSGTDFTLTISSLQPEDFATYYCQCSYYGGSYIGAFGGGTKVEIK
notes: its CDRs are those of rab600_25_103
With B2, the EC50 in [1] was 107 pM; in [2] it was 97 pM; in experiment [3], 570 pM. Also, binding in experiment [4] was characterised by a dissociation constant (Kd) of 468 pM.

B3: humanized antibody h600_23_24_H (antibody, V domains shown)
VH: EVQLVESGGGLVQPGGSLRLSCAASGFSLNSYGVNWVRQAPGKGLEWVGGINTGGSTYYANWAKGRFTISRDNSKNTLYLQMNSLRAEDTAVYYCARTSGNNVYNYFTLWGQGTLVTVSS
VL: DIQMTQSPSSLSASVGDRVTITCQASQSIPSLLAWYQQKPGKAPKLLIYAPSTLASGVPSRFSGSGSGTDFTLTISSLQPEDFATYYCQSYYYGDNTYNNIFGGGTKVEIK
On to B3, for which the EC50 is 91 pM in [1], 142 pM in experiment [2] and 1990 pM in [3]. The molecule also yielded a Kd in experiment [4] of 1500 pM.

B4: chimeric antibody clone 24-25 (rab600_24_25) (antibody, V domains shown)
VH: QSLEESGGGLVKPEGSLTLTCAVSGFDLNSYYWICWARQAPGKGLEWIACIDGGSTGSAYYASWAKGRLSISKASSTTVTLQMTSLTAADTATYFCARVQSYVGYANYGYPNYFNLWGPGTLVTVSS
VL: IEMTQTPSSVSAAVGGTVTINCQSSEDIDSYLAWYQQKPGQPPKLLIYHASYLTSGVPSRFSGSRSGTEFTLTISDLECDDAATYYCQSAYYSSSADNTFGGGTEVVVK
On to B4, for which the EC50 in [5] came to 210 pM; in experiment [6], 189 pM. The binding result (in [7]; with soluble mouse TNFR2) was “binds” in each case.

B5: chimeric antibody clone 24-62 (rab600_24_62) (antibody, V domains shown)
VH: QSLEESGGDLVVPGTSLTLTCTASGFDLSSFYYMCWVRQAPGKGLEWIACIYAVSSGSTYYASWAKGRFTVSRTSSTTATLQMTSLTAADTATYFCARHQSYETYGYVGVVYATYFSLWGPGTLVTVSS
VL: ALVMTQTPASVSAAVGGTVTINCQASEDIDSYLAWYQQKPGQPPKLLIYYASYLTSGVPSRFKGSGSGTEYTLTISGVQCDDAATYYCQSAFYSNNTETAFGGGTEVVVK
For B5, the half-maximal effective concentration (EC50) stood at 137 pM in experiment [5] and 95.8 pM in experiment [6]. Further, the binding result (in experiment [7]; with soluble mouse TNFR2) was “binds” in each case.

B6: humanized antibody clone 37 (taken as h600_25_37) (antibody, V domains shown)
VH: EVQLVESGGGLVQPGGSLRLSCAASGIDLSNYAMGWVRQAPGKGLEWVGSRRTDGITYYANWAEGRFTISRDNSKNTLYLQMNSLRAEDTAVYYCGRDVGGEGGWYFNLWGQGTLVTVSS
VL: DIQMTQSPSTLSASVGDRVTITCQASQSINIYLAWYQQKPGKAPKLLIYDASKLASGVPSRFSGSGSGTEFTLTISSLQPDDFATYYCQQGINNIGFGGGTKVEIK
With B6, the results for the EC50 in [1], in experiment [2] and in [3] were 56 pM, 72 pM and 109000 pM, respectively.

B7: chimeric antibody clone 25-10 (rab600_25_10) (antibody, V domains shown)
VH: QSVEESGGRLVAPGTPLTLTCTVSGIDLSRYAMAWVRQAPGKGLEYIGYIDTGDSTYYATWAKGRFTISRTSTTVHLKIASPTTEDTATYFCTNVGVRMYLWGPGTLVTVSS
VL: DVVMTQTPASVEAAVGGTVTIKCQASQSISSYLSWYQQKPGQPPKLLIYRASTLESGVPSRFKGSGSGTEFTLTISDLECADAATYYCQCGYYGGSYIGAFGGGTEVVVK
In the case of B7, the values for the EC50 in experiment [5], in experiment [6] and in experiment [8] were 86.2 pM, 23.5 pM and 513 pM, respectively. Besides, the binding result (in [7]; in the experiment with soluble mouse TNFR2) was “binds” each time.

B8: humanized antibody clone 4 (taken as h600_23_4) (antibody, V domains shown)
VH: EVQLVESGGGLVQPGGSLRLSCAASGIDLSSYTMGWVRQAPGKGLEWVGFISSSGHTYYANWAKGRFTISRDNSKNTLYLQMNSLRAEDTAVYYCAREGGYGGYDYTGIFNLWGQGTLVTVSS
VL: DIQMTQSPSTLSASVGDRVTITCQATESISSWLAWYQQKPGKAPKLLIYGASTLESGVPSRFSGSGSGTEFTLTISSLQPDDFATYYCQQGYIYTNVDNTFGGGTKVEIK
What is called IC50 is the concentration that gives 50% inhibition. With B8, the concentration for a half-maximal effect (EC50) in experiment [1] is 340 pM; in experiment [2], 111 pM; in experiment [3], 1130 pM. The IC50 with TNFR-Fc came to 3570 pM.

B9: chimeric antibody clone 24-2 (rab600_24_2) (antibody, V domains shown)
VH: QEQLEESGGGLVQPEGSLALTCKASGFSFSVSYWICWVRQAPGKGLEWIACTDGGDGSSYYASWVNGRFTISKISSTTVTLQMTSLTAADTAIYFCARDRSDVFNLWGPGTLVTVSS
VL: DIVMTQTPASVEAAVGGTVTIKCQAGQSIDSNLAWYQQKPGQPPKLLIYRASTLASGVPSRFKGSGSGTEFALTISDLECADAATYFCQSFYVTISAMVDYPFGGGTEVVVK
In the case of B9, the values for the EC50 in experiment [5] and in [6] were 98.1 pM and 74.2 pM, respectively. The figures for the binding result (in experiment [7]; with soluble mouse TNFR2) were “binds” and “no binding”, respectively.

B10: chimeric antibody clone 24-97 (rab600_24_97) (antibody, V domains shown)
VH: QSLEESGGDLVKPGASLTLTCKASGFSFSSGHDMCWVRQAPGKGLEWIACIYPDYDITDYASWVNGRFTISLDNAQNTVFLQMTSLTAADTATYFCARSGYGGFRYGFNLWGPGTLVTVSS
VL: DIVMTQTPASVEVAVGGTVTIKCQASEDIENYLAWYQQKPGQPPKLLIYDASDLTSGVPSRFKGSGSGTQFTLTISDLECADAATYYCQSVYYTSSDNYNNAFGGGTEVVVK
Turning to B10, the EC50 amounted to 63.2 pM in experiment [5] and 86 pM in [6]. Besides, the binding result (in experiment [7]; in the experiment with soluble mouse TNFR2) was “binds” in each case.

Source of the values: patent US20220372154A1 (APEXIGEN, published 2022).
